Measured values from paper PMC8254751 (Molecular cancer research : MCR, 2021).
Where “and” joins values, the source holds several entries; their conditions need not be identical. Equal entries are not always repeated.

B1: His-ASXL2-AB (261–381aa) (domain or fragment, human, UniProt Q76L83 261-381, looked up)
chain: MKRTKCADIDVETPDSILVNTNLRALINKHTFSVLPGDCQQRLLLLLPEVDRQVGPDGLMKLNGSALNNEFFTSAAQGWKERLSEGEFTPEMQVRIRQEIEKEKKVEPWKEQFFESYYGQS
B2: His-ULD/AB protein complex (pETDuet-1-His-BAP1-ULD+ASXL2-AB) (complex, human)
chain 1: KEVVEATDSREKTGMVRPGEPLSGEKYSPKELLALLKCVEAEIANYEACLKEEVEKRKKFKIDDQRRTHNYDEFICTFISMLAQEGMLANLVEQNISVRRRQGVSIGRLHKQRKPDRRKRSRPYKAKRQ
chain 2: B1 chain
B3: GST-BAP1-UCH-WT (1–250 aa) (domain or fragment, human, UniProt Q92560 1-250, looked up)
chain: MNKGWLELESDPGLFTLLVEDFGVKGVQVEEIYDLQSKCQGPVYGFIFLFKWIEERRSRRKVSTLVDDTSVIDDDIVNNMFFAHQLIPNSCATHALLSVLLNCSSVDLGPTLSRMKDFTKGFSPESKGYAIGNAPELAKAHNSHARPEPRHLPEKQNGLSAVRTMEAFHFVSYVPITGRLFELDGLKVYPIDHGPWGEDEEWTDKARRVIMERIGLATAGEPYHDIRFNLMAVVPDRRIKYEARLHVLKV
B4: His-BAP1-ULD (601–729aa) (domain or fragment, human, UniProt Q92560 601-729, looked up)
chain: B2 chain 1

Key:
His-BAP1-ULD (601–729aa) = biological target: B4; test: ITC
GST-BAP1-ULD = biological target: T1, GST-BAP1-ULD (human, UniProt Q92560 601-729); test: SPR
T1 sequence (looked up): B2 chain 1

[1] = biological target: T2, Full-length His-BAP1 (Bv-His-BAP1-FL-WT) (human, UniProt Q92560 1-729); test: SPR
T2 sequence (looked up): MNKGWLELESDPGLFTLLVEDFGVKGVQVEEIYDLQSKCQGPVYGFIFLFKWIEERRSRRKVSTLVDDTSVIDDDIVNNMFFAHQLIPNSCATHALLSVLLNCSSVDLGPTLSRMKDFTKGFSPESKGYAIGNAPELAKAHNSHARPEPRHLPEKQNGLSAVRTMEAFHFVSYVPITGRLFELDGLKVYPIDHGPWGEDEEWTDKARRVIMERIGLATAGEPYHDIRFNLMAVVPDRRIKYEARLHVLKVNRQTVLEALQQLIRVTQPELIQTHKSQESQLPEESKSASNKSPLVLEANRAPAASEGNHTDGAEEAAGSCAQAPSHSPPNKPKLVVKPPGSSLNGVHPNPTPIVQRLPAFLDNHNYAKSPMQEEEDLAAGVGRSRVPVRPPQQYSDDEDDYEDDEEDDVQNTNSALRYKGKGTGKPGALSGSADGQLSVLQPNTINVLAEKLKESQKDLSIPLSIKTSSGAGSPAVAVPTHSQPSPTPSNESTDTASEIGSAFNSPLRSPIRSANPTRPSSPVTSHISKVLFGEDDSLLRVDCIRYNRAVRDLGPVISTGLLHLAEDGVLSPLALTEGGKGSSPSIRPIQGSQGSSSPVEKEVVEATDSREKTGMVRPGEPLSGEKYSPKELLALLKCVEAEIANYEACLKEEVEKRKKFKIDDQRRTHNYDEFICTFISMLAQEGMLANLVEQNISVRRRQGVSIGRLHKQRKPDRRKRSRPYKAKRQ

[2] = biological target: B2; test: SPR
His-ASXL2-AB (261–381aa) = biological target: B1; test: ITC

## B1
His-BAP1-ULD (601–729aa)
  Kd: ~4260 nM
GST-BAP1-ULD
  Kd: 134 nM and 67 nM

## B2
[1]
  Kd: 850 nM and 1910 nM
  koff: 0.033 s⁻¹

## B3
[2]
  koff: 0.044 s⁻¹

## B4
His-ASXL2-AB (261–381aa)
  dH: -9.87 kcal/mol
